Changes are numbered by the printed parent chain. Entries after “also recorded” stand apart in the source; their conditions may differ.

For assay [1], the system named is induction of mesenchymal stem cells (MSCs) by FSTL1. As to the kind of experiment: Inhibitory activity against induction of MSC by FSTL1, CD45-negative cells (Examples 6, 8, 12). The conditions noted are these: antibody 10 μg/mL. It counts as cell-based, mouse. The protocol:
(§1) Mouse bone marrow cells prepared in the same way as in Example 4 were supplemented with 50 ng/mL (final concentration) of FSTL1 and 10 μg/mL of the anti-FSTL1 antibody (#5-2, #5-3, #5-8, #5-10, 45-43, #6-55, or #7-34) or a control antibody anti-DNP antibody and cultured under stimulation. 11 days thereafter, the number of cells was counted while the cells were stained with a PE-Cy5-labeled anti-CD45 antibody (BD Pharmingen/Becton, Dickinson and Company, Cat. No. 555484), and the content of CD45-negative cells reported to generally contain MSCs at a high rate was analyzed by flow cytometry using FACScan to calculate the percentage and number of MSCs per culture (FIG. 5A).
Mouse bone marrow cells prepared in the same way as in Example 4 were supplemented with 20 ng/mL (final concentration) of FSTL1 and 10 μg/mL of the anti-FSTL1 antibody (#5-2, #5-3, #5-8, #5-10, #5-43, #6-55, #8-1, #8-4, #8-7, and #8-8) or a control antibody anti-DNP antibody and cultured under stimulation. 8 days thereafter, the number of cells was counted while the cells were stained with a PE-Cy5-labeled anti-CD45 antibody, and the content of CD45-negative cells was analyzed by flow cytometry using FACScan to calculate the percentage and number of MSCs per culture (FIG. 6A).
Mouse bone marrow cells prepared in the same way as in Example 4 were supplemented with 20 ng/mL (final concentration) of FSTL1 and 10 μg/mL of the anti-FSTL1 antibody (#5-2, #5-8, #6-55, #7-34, #8-1, #8-4, #8-7, or #8-8) or a control antibody anti-DNP antibody and cultured under stimulation. 8 days thereafter, the number of cells was counted while the cells were stained with a PE-Cy5-labeled anti-CD45 antibody, and the content of CD45-negative cells was analyzed by flow cytometry using FACScan to calculate the percentage and number of MSCs per culture (FIG. 7).
as §1, with “35A).” for “5A).”
Mouse bone marrow cells prepared in the same way as in Example 4 were supplemented with 20 ng/mL (final concentration) of FSTL1 and 10 μg/mL of the anti-FSTL1 antibody (#5-2, #5-3, #5-8, #5-10, #5-43, #6-55, #8-1, #8-4, #8-7, and #8-8) or a control antibody anti-DNP antibody and cultured under stimulation. 8 days thereafter, the number of cells was counted while the cells were stained with a PE-Cy5-labeled anti-CD45 antibody, and the content of CD45-negative cells was analyzed by flow cytometry using FACScan to calculate the percentage and number of MSCs per culture (FIG. 36A).
Mouse bone marrow cells prepared in the same way as in Example 4 were supplemented with 20 ng/mL (final concentration) of FSTL1 and 10 μg/mL of the anti-FSTL1 antibody (#5-2, #5-8, #6-55, #7-34, #8-1, #8-4, #8-7, or #8-8) or a control antibody anti-DNP antibody and cultured under stimulation. 8 days thereafter, the number of cells was counted while the cells were stained with a PE-Cy5-labeled anti-CD45 antibody, and the content of CD45-negative cells was analyzed by flow cytometry using FACScan to calculate the percentage and number of MSCs per culture (FIG. 37).

The next assay concerns the target T1, FSTL1 (Homo sapiens, UniProt Q12841).
T1 sequence (Q12841 21-308): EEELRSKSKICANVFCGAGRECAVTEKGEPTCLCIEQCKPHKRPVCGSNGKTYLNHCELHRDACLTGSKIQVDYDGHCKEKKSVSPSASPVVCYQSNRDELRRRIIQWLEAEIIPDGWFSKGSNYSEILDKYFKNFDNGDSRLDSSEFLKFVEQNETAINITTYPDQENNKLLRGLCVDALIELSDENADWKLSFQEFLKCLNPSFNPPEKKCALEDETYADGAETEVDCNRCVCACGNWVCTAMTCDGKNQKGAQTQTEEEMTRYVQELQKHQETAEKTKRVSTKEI
The assay is described as follows: Inhibition of MSC induction by FSTL1 in mouse bone marrow cells, CD45-negative cells (Examples 6, 8, 12). It counts as cell-based. More on the design: purchased R&D Systems, Inc. 1694-FN-050. Particulars: antibody 10 μg/mL. The protocol:
as §1, with “CD45− negative” for “CD45-negative”, “67A).” for “5A).”
Mouse bone marrow cells prepared in the same way as in Example 4 were supplemented with 20 ng/mL (final concentration) of FSTL1 and 10 μg/mL of the anti-FSTL1 antibody (#5-2, #5-3, #5-8, #5-10, #5-43, #6-55, #8-1, #8-4, #8-7, and #8-8) or a control antibody anti-DNP antibody and cultured under stimulation. 8 days thereafter, the number of cells was counted while the cells were stained with a PE-Cy5-labeled anti-CD45 antibody, and the content of CD45− negative cells was analyzed by flow cytometry using FACScan to calculate the percentage and number of MSCs per culture (FIG. 68A).
Mouse bone marrow cells prepared in the same way as in Example 4 were supplemented with 20 ng/mL (final concentration) of FSTL1 and 10 μg/mL of the anti-FSTL1 antibody (#5-2, #5-8, #6-55, #7-34, #8-1, #8-4, #8-7, or #8-8) or a control antibody anti-DNP antibody and cultured under stimulation. 8 days thereafter, the number of cells was counted while the cells were stained with a PE-Cy5-labeled anti-CD45 antibody, and the content of CD45− negative cells was analyzed by flow cytometry using FACScan to calculate the percentage and number of MSCs per culture (FIG. 69).

[2] abbreviates: Example 8, FIG. 6A/36A, FSTL1 20 ng/mL, 8 days.
Where [3] appears, read: Example 12, FIG. 7/37, FSTL1 20 ng/mL, 8 days.
[4] abbreviates: Example 8, FSTL1 20 ng/mL, 8 days.
The mark [5] stands for this setting: Example 12, FSTL1 20 ng/mL, 8 days.
Where [6] appears, read: Example 6, FIG. 5A/35A, FSTL1 50 ng/mL, 11 days.
Where [7] appears, read: Example 6, FSTL1 50 ng/mL, 11 days.

B1: #6-55: chicken-mouse chimeric anti-FSTL1 antibody clone; variable regions SEQ ID NO: 783 (light), 785 (heavy) (antibody, V domains shown)
VH: AVTLDESGGGLQTPGGALSLVCKGSGFTFTSVTMQWVRQAPGKGLEWVASVCSGSSTYYAPAVKGRATISRDNGQSTVRLQLSNLRPEDTGTYYCAKIAGRARWSCTSAAYNIDAWGHGTEVIVSS
VL: ASTQPSSVSAIPGETVKITCSGGGNNYGWYQQRSPGSAPVTVIYYNDNRPSNIPSRFSGSTSGSTSTLTITGVQADDEAIYYCGSWDSNTDSGIFGAGTTLTVL
modifications: mouse constant regions
Take B1: the “inhibitory activity against the expansion of CD45-negative cells by FSTL1” value (“inhibitory activity” below) is “exhibited inhibitory activity against the expansion of CD45-negative cells by FSTL1; also recorded: Inhibitory activity was confirmed” in assay [1] (setting [2]); “higher inhibitory activity was confirmed in the order of #7-34, #5-2, #6-55, and #8-7” in assay [1] (setting [3]); “Inhibitory activity was confirmed; also recorded: exhibited inhibitory activity” with FSTL1 (setting [4]); “higher inhibitory activity was confirmed in the order of #7-34, #5-2, #6-55, and #8-7” with FSTL1 (setting [5]).

B2: #7-34: chicken-mouse chimeric anti-FSTL1 antibody clone; variable regions SEQ ID NO: 787 (light), 789 (heavy) (antibody, V domains shown)
VH: AVTLDESGGGLQTPGGGLSLVCKASGFTFSSVTMQWVRQAPGKGLEWVASICSGSSTYYGPAVKGRATISRDNGQNTVRLQLNNLRAEDTATYYCAKIVGRGRWSCTSAAYNIDAWGHGTEVIVSS
VL: B1 VL with I11N, R33K, D47N, D76E, I80V, W86Y, D87E, S88G, N89S
modifications: mouse constant regions
Take B2: the “inhibitory activity” value was “higher inhibitory activity and substantially completely inhibited the action of FSTL1” in assay [1] (setting [6]); “higher inhibitory activity was confirmed in the order of #7-34, #5-2, #6-55, and #8-7; also recorded: stronger inhibitory activity was confirmed in the order of clone #7-34, #5-2, 46-55, and #8-7” in assay [1] (setting [3]); “higher inhibitory activity and substantially completely inhibited the action of FSTL1” in the assay with FSTL1 (setting [7]); “stronger inhibitory activity was confirmed in the order of clone #7-34, #5-2, 46-55, and #8-7; also recorded: higher inhibitory activity was confirmed in the order of #7-34, #5-2, #6-55, and #8-7; also recorded: stronger inhibitory activity was confirmed in the order of clone #7-34, #5-2, 96-55, and #8-7” with FSTL1 (setting [5]).

B3: #5-43: chicken-mouse chimeric anti-FSTL1 antibody clone; variable regions SEQ ID NO: 779 (light), 781 (heavy) (antibody, V domains shown)
VH: AVTLDESGGGLQTPGGGLSLVCKGSGFTFSSFNMFWVRQAPGKGLEWVAGIGKDGGTGYGAAVDGRATISKDSGQSTLRLQLNNLRAEDTGTYYCAKAAGGCSYDWCGAYTGDIDTWGHGTEVIVSS
VL: ASTQPSSVSANPGEAVKITCSGGSGSYYGWYQQKSPGSAPVTVIYNNNQRPSDIPSRFSGSKSGSTATLTITGVQAEDEAVYFCGGYDSSTGHGGIFGAGTTLTVL
modifications: mouse constant regions
On to B3, for which the “inhibitory activity” value was “higher inhibitory activity and substantially completely inhibited the action of FSTL1” in assay [1] (setting [6]); “exhibited inhibitory activity against the expansion of CD45-negative cells by FSTL1; also recorded: Inhibitory activity was confirmed” in assay [1] (setting [2]); “higher inhibitory activity and substantially completely inhibited the action of FSTL1” with FSTL1 (setting [7]); “Inhibitory activity was confirmed; also recorded: exhibited inhibitory activity” with FSTL1 (setting [4]).

B4: #5-3: chicken-mouse chimeric anti-FSTL1 antibody clone; variable regions SEQ ID NO: 767 (light), 769 (heavy) (antibody, V domains shown)
VH: B3 VH with G17A, T28S, G56V, T57P, G58K, S73N, L78M, Y94F, A109I, T111A
VL: ASTQPSSVSANPGETVKITCSGGSGYYYGWYQQKSPGSVPVTVIYNNNNRPSDIPSRFSGSKSGSTGTLTITGVRAEDEAVYYCGGYDNSGTGIFGAGTTLTVL
modifications: mouse constant regions
Turning to B4, the “inhibitory activity” value was “higher inhibitory activity and substantially completely inhibited the action of FSTL1” in assay [1] (setting [6]); “higher inhibitory activity and substantially completely inhibited the action of FSTL1” in the assay with FSTL1 (setting [7]).
